Source: patent US20240391954A1, “MC4R AGONIST PEPTIDES” (The Regents of the University of Michigan, priority 2021, published 2024)
Like-named read-outs stand apart in the source and are kept apart here. Positions of bridges follow the written chain, without caps; N, C: chain ends. Non-standard residues stand in square brackets, D forms with d. dPhe(4-Br) = N[C@H](Cc1ccc(Br)cc1)C(=O)O; dPhe(4-I) = N[C@H](Cc1ccc(I)cc1)C(=O)O; d(αMeF) = C[C@@](N)(Cc1ccccc1)C(=O)O; d(hPhe) = N[C@H](CCc1ccccc1)C(=O)O; NMeR = CN[C@@H](CCCNC(=N)N)C(=O)O; Cit = NC(=O)NCCC[C@H](N)C(=O)O; NMeA = CN[C@@H](C)C(=O)O; Nle = CCCC[C@H](N)C(=O)O; Aib = CC(C)(N)C(=O)O

Legend:
Test in all cases: cell-based or functional assay
human MC4R receptor [1] = target: T1, human MC4R receptor (human, UniProt P32245 1-332)
T1 sequence (P32245 whole entry): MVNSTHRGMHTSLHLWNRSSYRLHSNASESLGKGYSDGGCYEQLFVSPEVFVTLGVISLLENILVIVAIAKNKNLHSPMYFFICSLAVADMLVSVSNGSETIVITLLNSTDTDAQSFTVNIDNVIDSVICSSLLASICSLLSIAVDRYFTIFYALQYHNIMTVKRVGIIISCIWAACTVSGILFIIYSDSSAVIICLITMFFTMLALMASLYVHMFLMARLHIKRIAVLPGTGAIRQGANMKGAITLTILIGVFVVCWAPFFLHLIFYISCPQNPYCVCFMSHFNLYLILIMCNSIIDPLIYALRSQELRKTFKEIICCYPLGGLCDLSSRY

human MC3R [2] = target: T2, human MC3R (human, UniProt P41968 1-323)
T2 sequence (P41968 whole entry): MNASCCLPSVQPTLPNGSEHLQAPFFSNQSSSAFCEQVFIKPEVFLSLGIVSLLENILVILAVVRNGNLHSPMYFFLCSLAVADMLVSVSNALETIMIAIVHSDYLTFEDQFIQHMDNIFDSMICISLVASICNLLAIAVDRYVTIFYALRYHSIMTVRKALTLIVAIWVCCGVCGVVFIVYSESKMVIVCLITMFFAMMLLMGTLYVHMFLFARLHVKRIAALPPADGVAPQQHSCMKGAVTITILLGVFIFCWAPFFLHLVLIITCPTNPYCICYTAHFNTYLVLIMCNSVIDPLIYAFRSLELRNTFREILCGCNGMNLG

human MC4R receptor [3] = target: T1, human MC4R receptor; remark: listed apart in the source
human MC3R [4] = target: T2, human MC3R; remark: listed apart in the source
human MC4R receptor [5] = target: T1, human MC4R receptor; remark: listed apart in the source

Row | Binder | MC4R selectivity vs MC1R (human MC4R receptor [1]) | MC4R selectivity vs MC3R (human MC4R receptor [1]) | % max activation (human MC3R [2]) | cAMP EC50 (human MC3R [2]) | % max activation (human MC4R receptor [3]) | cAMP EC50 (human MC4R receptor [3]) | cAMP EC50 (human MC3R [4]) | cAMP EC50 (human MC4R receptor [5]) | % max activation (human MC3R [4]) | % max activation (human MC4R receptor [5])
1 | Ac-R[Nle]CR[dPhe(4-Br)]RWC-NH2 (disulfide 3-8; SMILES CCCC[C@H](NC(=O)[C@H](CCCNC(=N)N)NC(C)=O)C(=O)N[C@H]1CSSC[C@@H](C(N)=O)NC(=O)[C@H](Cc2c[nH]c3ccccc23)NC(=O)[C@H](CCCNC(=N)N)NC(=O)[C@@H](Cc2ccc(Br)cc2)NC(=O)[C@H](CCCNC(=N)N)NC1=O) [CTX-1230] |  |  |  |  |  |  | 3.9 nM | 1.4 nM |  | 
2 | Ac-RC[dA]R[dPhe(4-Br)]R[dW]CKPV-NH2 (disulfide 2-8; SMILES CC(=O)N[C@@H](CCCNC(=N)N)C(=O)N[C@H]1CSSC[C@@H](C(=O)N[C@@H](CCCCN)C(=O)N2CCC[C@H]2C(=O)N[C@H](C(N)=O)C(C)C)NC(=O)[C@@H](Cc2c[nH]c3ccccc23)NC(=O)[C@H](CCCNC(=N)N)NC(=O)[C@@H](Cc2ccc(Br)cc2)NC(=O)[C@H](CCCNC(=N)N)NC(=O)[C@@H](C)NC1=O) [CTX-1216] |  |  |  |  |  |  | 3.5 nM |  | 11% | 
3 | Ac-[Nle]CH[dPhe(4-I)]R[dW]C-NH2 (disulfide 2-7; SMILES CCCC[C@H](NC(C)=O)C(=O)N[C@H]1CSSC[C@@H](C(N)=O)NC(=O)[C@@H](Cc2c[nH]c3ccccc23)NC(=O)[C@H](CCCNC(=N)N)NC(=O)[C@@H](Cc2ccc(I)cc2)NC(=O)[C@H](Cc2c[nH]cn2)NC1=O) [CTX-1234] |  |  |  |  |  |  | 3.4 nM |  | 18% | 
4 | Ac-R[Nle]CH[dPhe(4-Br)]RWC-NH2 (disulfide 3-8; SMILES CCCC[C@H](NC(=O)[C@H](CCCNC(=N)N)NC(C)=O)C(=O)N[C@H]1CSSC[C@@H](C(N)=O)NC(=O)[C@H](Cc2c[nH]c3ccccc23)NC(=O)[C@H](CCCNC(=N)N)NC(=O)[C@@H](Cc2ccc(Br)cc2)NC(=O)[C@H](Cc2c[nH]cn2)NC1=O) [CTX-1229] |  |  |  |  |  |  | 3.5 nM | 18 nM | 16% | 31%
5 | Ac-RC[dA]R[dPhe(4-Br)]R[dW]C-NH2 (disulfide 2-8) [CTX-1214] |  |  |  |  |  |  | 4.1 nM | 2.6 nM | 15% | 74%
6 | Ac-RC[dA]R[d(hPhe)]R[dW]C-NH2 (disulfide 2-8; SMILES CC(=O)N[C@@H](CCCNC(=N)N)C(=O)N[C@H]1CSSC[C@@H](C(N)=O)NC(=O)[C@@H](Cc2c[nH]c3ccccc23)NC(=O)[C@H](CCCNC(=N)N)NC(=O)[C@@H](CCc2ccccc2)NC(=O)[C@H](CCCNC(=N)N)NC(=O)[C@@H](C)NC1=O) [CTX-1239] |  |  |  |  |  |  | 74 nM | 249 nM |  | 
7 | Ac-RC[NMeA]R[dF]R[dW]C-NH2 (disulfide 2-8; SMILES CC(=O)N[C@@H](CCCNC(=N)N)C(=O)N[C@H]1CSSC[C@@H](C(N)=O)NC(=O)[C@@H](Cc2c[nH]c3ccccc23)NC(=O)[C@H](CCCNC(=N)N)NC(=O)[C@@H](Cc2ccccc2)NC(=O)[C@H](CCCNC(=N)N)NC(=O)[C@H](C)N(C)C1=O) [CTX-1269] | 2.56 | 9.31 | 39% | 121 nM | 92% | 13 nM |  |  |  | 
8 | Ac-R[Nle]CR[dPhe(4-Br)]R[dW]C-NH2 (disulfide 3-8; SMILES CCCC[C@H](NC(=O)[C@H](CCCNC(=N)N)NC(C)=O)C(=O)N[C@H]1CSSC[C@@H](C(N)=O)NC(=O)[C@@H](Cc2c[nH]c3ccccc23)NC(=O)[C@H](CCCNC(=N)N)NC(=O)[C@@H](Cc2ccc(Br)cc2)NC(=O)[C@H](CCCNC(=N)N)NC1=O) [CTX-1232] |  |  |  |  |  |  | 6 nM | 2.4 nM |  | 

The next lines start with the values.

Row | MC4R selectivity vs MC1R (human MC4R receptor [1]) | MC4R selectivity vs MC3R (human MC4R receptor [1]) | % max activation (human MC3R [2]) | cAMP EC50 (human MC3R [2]) | % max activation (human MC4R receptor [3]) | cAMP EC50 (human MC4R receptor [3]) | cAMP EC50 (human MC3R [4]) | cAMP EC50 (human MC4R receptor [5]) | % max activation (human MC3R [4]) | % max activation (human MC4R receptor [5]) | Binder
9 | 1.13 | 12 | 86% | 418 nM | 105% | 36 nM |  |  |  |  | Ac-RC[dA]R[d(αMeF)]RWC-NH2 (disulfide 2-8; SMILES CC(=O)N[C@@H](CCCNC(=N)N)C(=O)N[C@H]1CSSC[C@@H](C(N)=O)NC(=O)[C@H](Cc2c[nH]c3ccccc23)NC(=O)[C@H](CCCNC(=N)N)NC(=O)[C@@](C)(Cc2ccccc2)NC(=O)[C@H](CCCNC(=N)N)NC(=O)[C@@H](C)NC1=O) [CTX-1278]
10 |  |  |  |  |  |  | 45 nM | 429 nM |  |  | Ac-RC[dA]R[d(hPhe)]R[dW]C-NH2 (disulfide 2-8) [CTX-1277]
11 | 0.44 | 0.29 | 44% | 28 nM | 92% | 97 nM |  |  |  |  | Ac-RC[dA]R[dF][Cit][dW]C-NH2 (disulfide 2-8) [CTX-1281]
12 | 281 | 66 | 43% | 50 nM | 94% | 0.77 nM |  |  |  |  | Ac-RCA[Cit][dF]RWC-NH2 (disulfide 2-8) [CTX-1287]
13 | 0.15 | 8.11 | 45% | 1040 nM | 91% | 128 nM |  |  |  |  | Ac-RC[dA]R[dF][NMeR][dW]C-NH2 (disulfide 2-8; SMILES CC(=O)N[C@@H](CCCNC(=N)N)C(=O)N[C@H]1CSSC[C@@H](C(N)=O)NC(=O)[C@@H](Cc2c[nH]c3ccccc23)NC(=O)[C@H](CCCNC(=N)N)N(C)C(=O)[C@@H](Cc2ccccc2)NC(=O)[C@H](CCCNC(=N)N)NC(=O)[C@@H](C)NC1=O) [CTX-1284]
14 | 2.49 | 1.88 | 14% | 52 nM | 98% | 27 nM |  |  |  |  | Ac-RC[Aib]R[dF][Cit]WC-NH2 (disulfide 2-8) [CTX-1270]
15 |  |  |  |  |  |  | 4.5 nM | 2 nM |  |  | Ac-R[Nle]CR[dPhe(4-Br)]RWC-NH2 (disulfide 3-8; SMILES CCCC[C@H](NC(=O)[C@H](CCCNC(=N)N)NC(C)=O)C(=O)N[C@H]1CSSC[C@@H](C(N)=O)NC(=O)[C@H](Cc2c[nH]c3ccccc23)NC(=O)[C@H](CCCNC(=N)N)NC(=O)[C@@H](Cc2ccc(Br)cc2)NC(=O)[C@H](CCCNC(=N)N)NC1=O) [CTX-1612]
16 | 3.4 | 2.16 | 24% | 568 nM | 91% | 262 nM |  |  |  |  | Ac-RC[dA][Cit][dF]R[dW]C-NH2 (disulfide 2-8) [CTX-1286]
